The target in assay [1] is T1, recombinant human galectin-7 (human, UniProt P47929 1-136).
T1 construct: Prototypic galectin with one CRD; also called hGAL-7; human GAL-7
The experiment in a line: phage selection and ELISA (FIG. 3A). On the technique in general: An ELISA detects its analyte on a solid surface through an enzyme-linked reagent.

Assay [2] concerns the target T1, recombinant human galectin-7. The assay can be described thus: ELISA of the selected nanobody clone on hGAL-7 with His-tagged MBP as control; y axis 'ELISA Ratio'; no concentration given.
For assay [3] the target is unchanged. The experiment in a line: SPR (BIACore), human GAL-7 on the sensor surface, Nb as analyte. As to the method: SPR analysis. Binding affinities of his-tagged GAL-7-specific Nbs was measured by surface plasmon resonance (SPR) using a BIACore® system. Briefly, a buffer flow was run across the sensor surface, which has previously been coated with human GAL-7, then the Nbs were introduced into the device and allowed to bind to the immobilized antigen. The stability of the binding between GAL-7 and the Nbs was measured and used to calculate the dissociation constant (Kd) of the Nbs for human GAL-7.
For orientation: SPR reads the build-up and loss of mass on a sensor chip optically.

For assay [4] the target is unchanged. The experiment in a line: cell-based or functional assay.
The target is the same in assay [5]. The assay can be described thus: cell-based or functional assay. This is another data set of the same source.

Like-named read-outs stand apart in the source and are kept apart here.

T1 sequence (P47929 whole entry): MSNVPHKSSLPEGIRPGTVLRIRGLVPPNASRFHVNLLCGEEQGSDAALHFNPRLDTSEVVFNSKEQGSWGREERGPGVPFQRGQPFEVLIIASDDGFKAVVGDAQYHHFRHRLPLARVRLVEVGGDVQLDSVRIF

B1: Nanobody 219_A01 (VHH)
VHH: EVQLQASGGGFVQPGGSLRLSCAASGGGYDWDAMGWFRQAPGKEREFVSAISSNNNGSRYYADSVKGRFTISRDNSKNTVYLQMNSLRAEDTATYYCAADQYWGQGTQVTVSS
notes: 169 aa with the tag, so CDR3 has 3 residues
With B1, the binding result in assay [1] was “binds”.

B2: Nanobody 218_F09 (VHH)
VHH: EVQLQASGGGFVQPGGSLRLSCAASGTTSNGEVMGWFRQAPGKEREFVSAISFGAGSSEYYADSVKGRFTISRDNSKNTVYLQMNSLRAEDTATYYCAASWYHSSIGSMSYWGQGTQVTVSS
notes: 178 aa with the tag, so CDR3 has 12 residues, which fits CDR set (b) or (d)
For the molecule B2, the binding result in assay [2] was “binds”.

B3: Nanobody 219_F02 (VHH)
VHH: EVQLQASGGGFVQPGGSLRLSCAASGSTSYSSTMGWFRQAPGKEREFVSAISFDGTSKPYYADSVKGRFTISRDNSKNTVYLQMNSLRAEDTATYYCAAGEWEALMWPPVHDFWIYYWGQGTQVTVSS
notes: 184 aa with the tag, so CDR3 has 18 residues, which fits CDR set (g) or (i)
As to B3, the binding result in assay [2] is on record as “binds”.

B4: Nanobody 216_D11 (VHH)
VHH: EVQLQASGGGFVQPGGSLRLSCAASGDTSESTSMGWFRQAPGKEREFVSAISRSSTWDAYYADSVKGRFTISRDNSKNTVYLQMNSLRAEDTATYYCAMADIFDHPQNASFMKYWGQGTQVTVSS
notes: 181 aa with the tag, so CDR3 has 15 residues, which fits CDR set (c) or (l)
On to B4, for which the binding result in assay [2] is given as “binds”.

B5: Nanobody 214_H05 (VHH)
VHH: EVQLQASGGGFVQPGGSLRLSCAASGTTSNSSGMGWFRQAPGKEREFVSAISWDHGILTYYADSVKGRFTISRDNSKNTVYLQMNSLRAEDTATYYCAHGYVHFNMTHRHISDYWGQGTQVTVSS
notes: Humanized synthetic single domain antibody (hs2dAb library, Hybrigenics); 181 aa with the tag, so CDR3 has 15 residues, which fits CDR set (c), (k) or (l)
Regarding B5, in assay [2], the binding result is given as “binds”.

B6: Nanobody 218_B04 (VHH)
VHH: EVQLQASGGGFVQPGGSLRLSCAASGRTSSQDIMGWFRQAPGKEREFVSAISDYSGGNVYYADSVKGRFTISRDNSKNTVYLQMNSLRAEDTATYYCAFLGEEKTSWYWGQGTQVTVSS
notes: 175 aa with the tag, so CDR3 has 9 residues, which fits CDR set (a), (e) or (h)
Turning to B6, the binding result in assay [2] is given as “binds”.

B7: Nanobody 217_C02 (SEQ ID NO: 52) (VHH)
VHH: EVQLQASGGGFVQPGGSLRLSCAASGTYSSIEVMGWFRQAPGKEREFVSAISFEPNEFAYYADSVKGRFTISRDNSKNTVYLQMNSLRAEDTATYYCASSVEWRQNGKPNTASYWGQGTQVTVSS
notes: Humanized synthetic single domain antibody, his-tagged, made in E. coli; 181 aa with the tag; also called NB #12
In the case of B7, in assay [3], the Kd came to 1500 nM, the koff stood at 0.00165 s⁻¹ and the kon stood at 1100 M⁻¹ s⁻¹.

B8: Nanobody 216_A01 (SEQ ID NO: 6) (VHH)
VHH: EVQLQASGGGFVQPGGSLRLSCAASGRYSRIEIMGWFRQAPGKEREFVSAISSTPSSNEYYADSVKGRFTISRDNSKNTVYLQMNSLRAEDTATYYCARWDWHSWDTYWGQGTQVTVSS
notes: Humanized synthetic single domain antibody, his-tagged, made in E. coli; 175 aa with the tag; also called NB #2
Turning to B8, the “IC50 (read off the curve): inhibition of hGAL-7-induced apoptosis of Jurkat T cells (Annexin V, flow cytometry)” value in assay [4] is ~3000 nM. For the same molecule, the “IC50 (read off the curve): inhibition of hGAL-7-induced apoptosis of Jurkat T cells (Annexin V, flow cytometry)” value in assay [5] is ~2000 nM. Moreover, in assay [3], the Kd was determined as 123 nM, the off-rate constant (koff) came to 0.00348 s⁻¹ and the kon stood at 28400 M⁻¹ s⁻¹.

B9: Nanobody 218_A01 (VHH)
VHH: EVQLQASGGGFVQPGGSLRLSCAASGAGSRSDVMGWFRQAPGKEREFVSAISGFWGWTTYYADSVKGRFTISRDNSKNTVYLQMNSLRAEDTATYYCALGGAPGQTGYWGQGTQVTVSS
notes: as for B6
B9: the binding result in assay [2] is listed as “binds”.

B10: Nanobody 219_F09 (VHH)
VHH: EVQLQASGGGFVQPGGSLRLSCAASGAYSFESGMGWFRQAPGKEREFVSAISSDADLFSYYADSVKGRFTISRDNSKNTVYLQMNSLRAEDTATYYCAAFSSGGELSYWGQGTQVTVSS
notes: as for B6
Regarding B10, the binding result in assay [2] is “binds”.

B11: Nanobody 218_D11 (VHH)
VHH: EVQLQASGGGFVQPGGSLRLSCAASGDTSRFDVMGWFRQAPGKEREFVSAISWWSSDHIYYADSVKGRFTISRDNSKNTVYLQMNSLRAEDTATYYCAYGEYPPRMNRRPYWGQGTQVTVSS
notes: as for B2
Consider B11, for which the binding result in assay [2] is “binds”.

B12: Nanobody 219_H09 (VHH)
VHH: EVQLQASGGGFVQPGGSLRLSCAASGSTSYGETMGWFRQAPGKEREFVSAISYYSTRKPYYADSVKGRFTISRDNSKNTVYLQMNSLRAEDTATYYCAIVAYIYADGVRGYHQKIDYWGQGTQVTVSS
notes: as for B3
B12: in assay [2], the binding result is on record as “binds”.

For orientation: Kd means a measure of binding affinity in units of concentration. By koff is commonly meant the rate constant with which the complex falls apart. For orientation: kon means a measure of how fast the partners come together.

The values are drawn from patent US20220089746A1 (INSTITUT NATIONAL DE LA RECHERCHE SCIENTIFIQUE, published 2022).
